A short description of data set [1]: Fab Tm by dynamic scanning fluorimetry (DSF). Format: physicochemical. The note with it: optimized antibodies. The procedure: 10 μL of 20× Sypro Orange is added to 20 μL of 0.2-1 mg/mL mAb or Fab solution. A RT-PCR instrument (BioRad CFX96 RT PCR) is used to ramp the sample plate temperature from 40 to 95° C. at 0.5° C. increment, with 2 min equilibrate at each temperature. The negative of first derivative for the raw data is used to extract Tm.

For a further data set, the system named is whole blood. The data set can be described thus: Whole blood loop assay (ID.Flow). In kind it is cell-based, human. As to conditions: blood of six healthy volunteers, 24 hr. The procedure: Flow, an ex vivo system that mimics the human blood circulation. Fresh whole blood was taken from six healthy volunteers and immediately transferred to a whole blood loop system. The test items were administered, and the blood was set to circulate at 37° C. to prevent clotting. Blood samples collected at the 24 hr time point were analyzed for hematology and flow cytometry parameters and then processed to plasma for cytokine analysis. The anti-CD52 antibody Alemtuzumab was included as a reference antibody with manageable cytokine release in the clinic.

The next data set in a line: SEC-HPLC % monomer. In kind it is physicochemical. As to conditions: optimized antibodies. As to the method: A TSKgel SuperSW mAb HTP column (22855) was used for fast SEC analysis of mammalian produced mAbs at 0.4 mL/min with a cycle time of 6 min/run. 200 mM Sodium Phosphate and 250 mM Sodium Chloride was used as the mobile phase.
In data set [2] the target is T1, recombinant human IL18-BP (Homo sapiens, UniProt O95998).
T1 construct: purchased R&D systems 119-BP
T1 sequence (O95998 31-194): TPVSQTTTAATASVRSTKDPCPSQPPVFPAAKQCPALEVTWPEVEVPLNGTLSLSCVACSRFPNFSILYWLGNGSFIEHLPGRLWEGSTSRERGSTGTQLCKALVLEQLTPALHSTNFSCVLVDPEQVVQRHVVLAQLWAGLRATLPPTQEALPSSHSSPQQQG
Description: MEL624:TIL assay. Format: cell-based. The note with it: rhIL-18 30 ng/ml + rhIL-18BP 1 μg/ml, vs isotype control. The procedure: Human MEL624 cells were thawed and grown in DMEM with 10% FBS, 1% Glutamax, 1% Penicillin-Streptomycin Solution and 1% HEPES buffer. The cells were then seeded at 75 k cells/well in a 96 well plate in the assay medium (IMDM with 10% human serum, 1% Glutamax, 1% MEM eagle, 1% Sodium Pyruvate and 1% Penicillin-Streptomycin Solution) and incubated 1 hour in 37° C., 5% CO2 incubator before co-culture with human tumor infiltrating lymphocytes that were previously expanded using known melanoma antigens (TILs). Human TILs were thawed in full TIL media and 75 k cells/well were co-cultured with the MEL624 cells to create an effector: target ratio of 1:1. The co-cultured cells were then treated with rhIL-18 (30 ng/ml) and rhIL-18BP (1 μg/ml) for 30 min in 37° C., 5% CO2 incubator to allow IL-18:IL-18BP complex formation. After 30 minutes, anti-human IL-18BP mAb (ADI-71722, dose titration, 30 μg/ml-0.01 μg/ml, dilution factor of 1:3) or relevant isotype control (hIgG1 30 μg/ml) were added to the co-culture to examine its capability to restore IL-18 activity. Cells and all added solutions were prepared in full assay medium to a final volume of 200 μl/well. Plates were incubated for 24 hours in 37° C., 5% CO2 incubator, after which the supernatant was collected for cytokine secretion evaluation. All tests were done in triplicates and each repeated with TIL four donors. […]

In data set [3] the target is T1, recombinant human IL18-BP. The data set can be described thus: CMV recall assay. Format: cell-based. As to the method: Human MEL-624 overexpressing PD-L1 cells were thawed and loaded with CMV pp65 peptide (0.03 μg/ml). The cells were seeded at 100K/well in a 96 well plate and incubated for 30 minutes in 37° C., 5% C02 incubator with a combination rhIL-18 (30 ng/ml, R&D systems, 9124-IL/CF) and rhIL-18BP-Fc chimeric protein (2 μg/ml, R&D systems 119-BP) to allow IL-18+IL-18BP complex formation. After 30 minutes, anti-human IL-18BP (ADI-71722), anti-human PVRIG, anti-human TIGIT (anti-TIGIT), anti-human PD1 (Pembrolizumab) or relevant isotype control (hIgG4) were added to the culture to examine their capability to restore IL-18 activity. All antibodies were added to a final concentration of 10 μg/ml. 30 minutes post incubation with antibodies, thawed CMV-reactive T-cells were added to the culture. Cells and all added solutions were prepared in full IMDM (IMDM media with 10% human serum, 1% Glutamax, 1% MEM eagle, 1% sodium pyruvate, and 1% Penicillin-Streptomycin Solution) to a final volume of 200 μl/well. Plates were incubated for 24 hours in 37° C., 5% C02 incubator, after which the supernatant was collected for IFNγ secretion evaluation. All tests were done in triplicates and each repeated with three donors.
MEL624 cells that overexpress PD-L1 were loaded with CMV peptide pp65. […] CMV-specific T-cells were then added to the culture and IFNg secretion was measured after an overnight incubation.

Data set [4] concerns the target T2, human IL18BP-Fc binding to human IL-18 (Homo sapiens, UniProt O95998).
T2 sequence (O95998 31-194): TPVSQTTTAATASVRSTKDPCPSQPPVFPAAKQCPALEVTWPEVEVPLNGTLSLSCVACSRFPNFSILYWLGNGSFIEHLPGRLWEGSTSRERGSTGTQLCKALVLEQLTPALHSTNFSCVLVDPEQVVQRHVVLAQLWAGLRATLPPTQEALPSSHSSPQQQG
Description: Blocking of hIL18BP-hIL-18 interaction by ELISA, IL18BP plate bound. The note with it: 1 ng/ml human IL-18, compared with clone W19089C. The procedure:
This assay was utilized to identify anti-human IL18BP Abs that inhibit the binding interaction between human IL18BP- and its counterpart, human IL-18. […] Human IL18BP-Fc protein was coated on the wells of a high binding plate overnight at 4° C. (1 μg/ml, 100 μl/well volume). Plates were washed three times with PBS-T buffer (1×PBS pH 7.4, 0.05% Tween20) incubated with 250 μL blocking buffer (2.5% skim milk in PBS) at room temperature (RT) for 2 hr. Blocking buffer was removed and plates were washed three times with PBS-T buffer. Plate-bound ligands were incubated with anti-human IL18BP Abs in 1% BSA in PBS buffer two times serially diluted (2.5-0.019 μg/ml, 100 μL/well volume) at RT for 1 h. Plates were washed one time with PBS. Plate-bound ligands were incubated with human IL-18 (cat. 9124-IL, R&D) in 1% BSA in PBS buffer (1 ng/ml, 100 μL/well volume) at RT for 1 h. Plates were washed three times with PBS-T (0.05% Tween20 in PBS). Biotinylated anti-IL18 detection antibody, cat. D045-6, R&D 1:1000 in 1% BSA in PBS buffer was added (100 μL/well). This was incubated at RT for 1 hr, and plates were washed again. Peroxidase Streptavidin, Jackson, cat. 016-030-084 1:1000 in 2.5% skim milk in PBS was added (100 μL/well) for 1 hr at RT. […] The HRP reaction was stopped by adding 50 μL 1N HCl and absorbance signals at 450 nm were read on a luminescence Reader-EnSpire (Perkin Elmar). […]

The target in data set [5] is T3, human IL-18-BP : human IL-18 complex (Homo sapiens, UniProt O95998).
T3 construct: purchased R&D systems 119-BP
T3 sequence (O95998 31-194): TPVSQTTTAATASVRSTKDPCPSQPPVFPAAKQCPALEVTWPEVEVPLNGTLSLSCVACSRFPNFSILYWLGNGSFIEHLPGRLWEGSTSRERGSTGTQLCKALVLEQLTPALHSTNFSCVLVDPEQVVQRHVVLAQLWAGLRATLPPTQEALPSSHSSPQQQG
The data set can be described thus: Competition ELISA with complex of soluble IL18-IL18BP. In kind it is binding. The note with it: ADI-66716 vs MAB1191. The procedure: This assay was utilized to identify anti-human IL18BP Abs that inhibit the binding interaction between human IL18BP- and its counterpart, human IL-18. Commercial Ab anti human IL18BP (Clone 136007, cat. MAB1191, R&D systems) and ADI-66716 were tested for inhibition of human IL18BP protein binding to IL-18 by ELISA. Human IL18BP antibody (cat.AF 119, R&D) was coated on the wells of a high binding plate overnight at 4° C. (1 ug/ml, 100 μl/well volume). Plates were washed three times with PBS-T buffer (1×PBS pH 7.4, 0.05% Tween20) incubated with 250 μL blocking buffer (2.5% skim milk in PBS) at room temperature (RT) for 2 hr. Blocking buffer was removed and plates were washed three times with PBS-T buffer. Complex pre-formed 1 hour at 37° C. with 0.25 nM human IL-18-BP (R&D, cat. 119BP) and 3 nM Human IL-18 Biotin (9124-IL, R&D) in 1% BSA in PBS buffer. Complex was incubated for 2 hrs at RT together with anti-human IL18BP Abs (in 1% BSA in PBS buffer two times serially diluted. 4-0.06 μg/ml, 100 μL/well volume). Peroxidase Streptavidin, Jackson, cat. 016-030-084 1:1000 in 2.5% skim milk in PBS was added (100 μL/well) for 1 hr at RT. Plates were washed three times with PBS-T buffer (1×PBS pH 7.4, 0.05% Tween20). […] The HRP reaction was stopped by adding 50 μL 1N HCl and absorbance signals at 450 nm were read on a luminescence Reader-EnSpire (Perkin Elmar). […]

The test system of data set [6] is B16/Db-hmgp100 melanoma model. Description: B16/Db-hmgp100 syngeneic tumor model. As to conditions: 10 mg/kg from day 4.
Description: B16/Db-hmgp100 cells were kindly provided by Dr. Hanada et al. (HHS agency) and were licensed from NIH. B16/Db-hmgp100 cells were generated by double transduction of B16F10 with H-2Db and a retrovirus that encodes chimeric mouse gp100 that is comprised of the human gp10025-33 and the rest of mouse gp100. Cells were cultured in RPMI 1640 (Biological Industries, 01-100-1A) with 10% FBS (Biological Industries, 04-127-1A), and 100 g/mL penicillin/streptomycin (Biological Industries, 03-031-1B), 1% Glutamax (Life technologies, 35050-038), 1% Sodium pyruvate (Biological Industries, 03-042-1B), 0.01% 2-mercaptoethanol (Life technologies, 31350-010), 10 μg/ml Blasticidin (InvivoGen, ant-bl-05). 1×10^5 B16/Db-hmgp100 cells subcutaneously into the back right flank of mice.
In both CT26 and B16/Db-hmgp100 models mAb administration started at day 4 (mono treatment) or day 7 post tumor inoculation when tumors were at volume of 30-50 mm^3 (combo treatment); and was given intra-peritoneal (i.p.) in a final volume/injection of 200 μl, for 3 wks for a total of 6 administrations. Tumor growth was measured with electronic caliper every 2-3 days and was reported as 0.5×W^2×L mm^3. […]
At day 4 post tumor inoculation mice were treated with mAbs (as detailed below) injected on day 4, 7, 11, 14, 18 and 21 post inoculation. Tumor growth was measured with caliper every 2-3 days. […]

B1: ADI-71709: anti-IL18-BP antibody, sequences in FIG. 2A; 66650 lineage (antibody, V domains shown)
VH: QVQLVQSGAEVKKPGASVKVSCEASGYTFDIYAVHWVRQAPGQRLEWMGWIHAGTGATKYSQKFQGRVTITRDTSASTAYMELSSLRSEDTAVYYCARGLGEVGPTGTSWFDPWGQGTLVTVSS
VL: DIQMTQSPSTLSASVGDRVTITCRASQSISSWLAWYQQKPGKAPKLLIYEASSLESGVPLRFSGSGSGTEFTLTISSLQPDDFATYYCQQYRQSPFTFGGGTKVEIK
Regarding B1, in data set [1], the “Fab Tm (DSF, ° C.)” value came out at 71.5 °C. Further, the “Signs of systemic immune activation, in combination with Nivolumab” value in the data set on whole blood is recorded as “did not show signs of systemic immune activation”. For the same molecule, in the data set with whole blood (hematology, flow cytometry, cytokines), the “Signs of systemic immune activation, as mono” value is given as “did not show signs of systemic immune activation”. In the data set “SEC-HPLC % monomer”, the “SEC-HPLC, % monomer” value is reported as 97.6%.

B2: ADI-71722: anti-IL18-BP antibody, sequences in FIG. 2D; 66670 lineage (antibody, V domains shown)
VH: QVQLVQSGAEVKKPGSSVKVSCKASGGTFSEYPISWVRQAPGQGLEWMGGIIPGAGTAIYAQKFQGRVTITADESTSTAYMELSSLRSEDTAVYYCARGRHFHETWGQGTLVTVSS
VL: DIQMTQSPSSVSASVGDRVTITCRASQGISSWLAWYQQKPGKAPKLLIYAASSLQSGVPSRFSGSGSGTDFTLTISSLQPEDFATYYCQQVYRFPWTFGGGTKVEIK
In the case of B2, the “IFNγ secretion from TILs” value in data set [2] is on record as “fully restore IL-18 activity”. Besides, the “IFNγ secretion by CMV-reactive T-cells, as mono” value in data set [3] (10 μg/ml, rhIL-18 30 ng/ml + rhIL-18BP 2 μg/ml) is “fully restore IFNγ secretion”. The “IFNγ secretion by CMV-reactive T-cells, in combination” value in data set [3] (combined with Pembrolizumab, anti-PVRIG or anti-TIGIT, each 10 μg/ml, vs mono) was “in a more potent manner”. Moreover, in data set [1], the “Fab Tm (DSF, ° C.)” value amounted to 73.0 °C. For the same molecule, the “SEC-HPLC, % monomer” value in the data set “SEC-HPLC % monomer” was 95.9%. Besides, the “Blocking effect on binding of human IL18BP to human IL-18” value in data set [4] was “superior to Biolegend Ab”.

B3: ADI-66716: anti-IL18-BP antibody, sequences in FIG. 2N; parental (antibody, V domains shown)
VH: QLQLQESGPGLVKPSETLSLTCTVSGGSISSSDYYWGWIRQPPGKGLEWIGSIYYSGSTYYNPSLKSRVTISVDTSKNQFSLKLSSVTAADTAVYYCARGPHRQVFDYWGQGTLVTVSS
VL: DIQMTQSPSSVSASVGDRVTITCRASQGISSWLAWYQQKPGKAPKLLIYAASSLQSGVPSRFSGSGSGTDFTLTISSLQPEDFATYYCQQGSSFPYTFGGGTKVEIK
On to B3, for which the “Blocking of IL18-IL18BP complex formation” value in data set [5] is listed as “superior blocking effect to R&D antibody”.

B4: anti-PVRIG: Anti PVRIG mAb 407 mAb mouse IgG1, BOJ-5G4-F4 (antibody, V domains shown)
VH: QVQLQQSGAELAKPGSSVMISCKASGYTFTNYAVHWIKQTTGQALEWTGYIAPGSGVTKYNEKFKGKATLTVDKSSTTAYMQLSSLTPVDTAVYYCASGTTRFAYWGQGTLVTVSS
VL: DIVLTQSPALAVSLGQRATISCRASQSVSLSSYNLMQWYQQKPGQEPKILIYDASNLPSGIPARFSGSGSGTDFTLTIDPVQADDIATYYCQQSKDDPLTFGSGTKLEIK
B4: the “Tumor growth, anti-PVRIG monotherapy” value in data set [6] is reported as “comparable tumor growth to mice treated with isotype control mAbs”.

The values above are taken from patent US20240425607A1, “IL-18BP ANTAGONIST ANTIBODIES AND THEIR USE IN MONOTHERAPY AND COMBINATION THERAPY IN THE TREATMENT OF CANCER” (Compugen Ltd., priority 2023, published 2024).
